Experimental data taken from PMC4221194.

Assays:
Assay in all cases: SEC; Superdex 75 10/300 GL column, after Ni-NTA purification; absorbance at 280 nm; proteins eluted at about 80 kDa
[1] = target: D22G-Angiogenin-GST (human Angiogenin D22G fused to GST, with a C-terminal hexa-histidine tag) (human) (UniProt P03950)
[2] = target: L35P-Angiogenin-GST (human Angiogenin L35P fused to GST, with a C-terminal hexa-histidine tag) (human) (UniProt P03950)
[3] = target: wild-type Angiogenin-GST (human Angiogenin fused to GST, with a C-terminal hexa-histidine tag) (human) (UniProt P03950)

How did the stoichiometry N [1] turn out when “D22G-Angiogenin-GST (human Angiogenin D22G fused to GST, with a C-terminal hexa-histidine tag) (from UniProt P03950 25-147) (enzyme)” was run?
The stoichiometry N was 2.

Which stoichiometry N [2] does the source give for “L35P-Angiogenin-GST (human Angiogenin L35P fused to GST, with a C-terminal hexa-histidine tag) (from UniProt P03950 25-147) (enzyme)” here?
Its stoichiometry N is 2.

“wild-type Angiogenin-GST (human Angiogenin fused to GST, with a C-terminal hexa-histidine tag) (from UniProt P03950 25-147) (enzyme)” was tested. Which stoichiometry N [3] did it give?
The stoichiometry N was 2.
